Source: US8673307

Key:
YU2-gp120 (HIV-1 (YU2)) = YU2-gp120 (HIV-1 (YU2)) (UniProt P35961); test: competition ELISA on gp120; unlabeled b12 against biotin labeled b12 (self-inhibition)
[1] = target: YU2-gp140 trimer (artificially trimerized gp140 protein) (HIV-1 (YU2)) (UniProt P35961); test: SPR (Biacore T100), antibody immobilized on CM5 chip, gp140 trimer injected, 1:1 model

## b12 (antibody)
YU2-gp120 (HIV-1 (YU2))
  IC50: 5 mg/L
[1]
  Kd: 0.012 µM
